Experiment [1] has as its target T1, purified β2AR having an amino terminal Flag epitope tag and a carboxyl hexahistidine tag (UniProt P07550 1-413).
T1 construct: also called β2 adrenoreceptor; denatured β2AR (when treated with SDS); not shown: carboxyl hexahistidine tag (six His)
Put plainly: isothermal titration calorimetry, detergent-solubilized β2AR, 25° C. Here is the method: ITC measurements were performed at 25° C. using a VP-ITC calorimeter (Microcal, Inc.). […] Titrations were initiated with a 3 μl injection, followed by a series of 8 μl injections (37 β₂AR and 31 for β₂AR buffer blank), with 240 s between injections. After subtracting the blank titration, the measured heat released upon binding was plotted against the Fab:β₂AR molar ratio, and the data were fitted to a single-site binding model to obtain the association constant Ka, enthalpy change ΔH, and stoichiometry n using the Origin software package¹ (Microcal, Inc.)
On the technique in general: Isothermal titration calorimetry measures the heat released or taken up as one component is titrated into another.

Experiment [2] deals with T2, β2AR labeled at C265 with tetramethylrhodamine (UniProt P07550 1-413, tetramethylrhodamine on C265).
T2 construct: Detergent-solubilized (0.1% dodecylmaltoside) purified receptor; also called β2AR-TMR
Briefly: antibody dose-response on fluorescence of β2AR-TMR (labeled at C265), 4 nM receptor.

For orientation: Kd means the concentration at which binding is half-saturated. A word on the EC50: it is the concentration at which the effect is half-maximal. A higher EC50 goes with lower potency in that assay.

B1: Fab 5 (Fab fragment of antibody 5) (Fab, V domains shown)
VH: EVQLQQSGAELARPGASVKLSCKASGYIFTDYYINWVRQRTGQGFEWIGEIYPGSGNIDYNERFKDKATLTADKSSSTAYMQLSSLTSEDSAVYFCVRGFGYWGQGTTLTVSS
VL: DIKMTQSPSSMYASLGERVTITCKASQDINSYLSWFQQKPGKSPKTLIYRANRLVDGVPSRFIGTGSGQDYSLTISSLDYEDMGIYYCLQYDEFPYTFGGGTKLEIKR
notes: Made by papain cleavage of purified mouse antibody 5 and purified by ion exchange (Mono Q) chromatography; also called Fab5 antibody; Fab 5 fragments
In experiment [1], B1 gave a Kd of 150 nM. This lies in the sub-micromolar range.

B2: antibody 5 (intact mouse monoclonal antibody) (antibody, V domains shown)
VH: EVQLQQSGAELARPGASVKLSCKASGYIFTDYYINWVRQRTGQGFEWIGEIYPGSGNIDYNERFKDKATLTADKSSSTAYMQLSSLTSEDSAVYFCVRGFGYWGQGTTLTVSS
VL: DIKMTQSPSSMYASLGERVTITCKASQDINSYLSWFQQKPGKSPKTLIYRANRLVDGVPSRFIGTGSGQDYSLTISSLDYEDMGIYYCLQYDEFPYTFGGGTKLEIKR
notes: Mouse IgG from hybridoma; also called Mab5; Mab5 IgG
B2: the EC50 in experiment [2] worked out at 23 nM.
